Test results reported in US8206955B2, “Production of monatin and monatin precursors” (Cargill, Incorporated, priority 2003, dated 2012).

Assay: tryptophan aminotransferase activity, production of indole-pyruvic acid
Assay type: biochemical
Procedure: Cell extracts were analyzed by SDS-PAGE, and assayed for tryptophan aminotransferase activity by following production of indole-pyruvic acid using the following protocol. One mL reactions were carried out in 50 mM sodium tetraborate (pH 8.5), 0.5 mM EDTA, 0.5 mM sodium arsenate, 50 μM pyridoxal phosphate, 5 mM α-ketoglutarate, and 5 mM L-tryptophan. The reactions were initiated by the addition of cell free extracts or purified enzyme and were incubated 30 minutes at 30° C. 20% TCA (200 μL) was added to stop the reaction, and the precipitated protein was removed by centrifugation. The absorbance at 327 nm was measured and compared to a standard curve of freshly prepared indole-3-pyruvate in the assay buffer. Control reactions without the substrate tryptophan or using cell-free extracts from clones transformed with pET30a alone were also performed.
Due to background from the native E. coli aminotransferases in cell extracts, the recombinant fusion proteins each containing an aminotransferase protein fused to the pET30 amino terminal HIS6-Tag/S-Tag (6×HIS tag disclosed as SEQ ID NO: 90) were purified using immobilized metal affinity chromatography with His-Bind cartridges following manufacturer's protocols (Novagen, Madison, Wis.). The HIS6-Tag sequence (SEQ ID NO: 90) of the fusion proteins binds to the divalent Ni^2+ cations immobilized on IDA-based His-Bind resin. The eluent fractions were desalted on PD-10 (Amersham Biosciences, Piscataway, N.J.) columns and eluted in 50 mM Tris, pH 7.0. Purified proteins were analyzed by SDS-PAGE and assayed for aminotransferase activity.
Table 1 lists the specific activities measured in micrograms of indole-3-pyruvate (I3P) formed per milligram protein per minute. […] In these cases a ‘>’ precedes the specific activity number.

[1] = cell extracts (CE), 5 mM L-tryptophan, 30 minutes at 30° C.
[2] = purified (P), 5 mM L-tryptophan, 30 minutes at 30° C.

B1: L. amylovorus araT: Lactobacillus amylovorus aromatic aminotransferase (araT, SEQ ID NOS: 11 and 12), novel (protein, listed as Lactobacillus amylovorus)
chain: MPELANDLGLSKKITDVKASGIRIFDNKVSAIPGIIKLTLGEPDMNTPEHVKQAAIKNIADNDSHYAPQKGKLELRKAISKYLKKITGIEYDPETEIVVTVGATEAINATLFAITNPGDKVAIPTPVFSLYWPVATLADADYVLMNTAEDGFKLTPKKLEETIKENPTIKAVILNYPTNPTGVEYSEDEIKALAKVIKDNHLYVITDEIYSTLTYGVKHFSIASLIPERAIYISGLSKSHAMTGYRLGYVAGPAKIMAEIGKVHGLMVTTTTDSSQAAAIEALEHGLDDPEKYREVYEKRRDYVLKELAEIEMQAVKPEGAFYIFAKIPAKYGKDDMKFALDLAFKEKVGITPGSAFGPGGEGHIRLSYASSDENLHEAMKRMKKVLQEDE
Specific Activity [1]: 1.26 μg I3P/mg protein/min | Specific Activity [2]: 0 μg I3P/mg protein/min

B2: Porcine type II-A: Glutamic-oxaloacetic transaminase from pig heart (type IIa), Sigma G7005 (protein, UniProt P00503 2-413, looked up)
Aspartate aminotransferase, …: APPSVFAEVPQAQPVLVFKLIADFREDPDPRKVNLGVGAYRTDDCQPWVLPVVRKVEQRIANDSSLNHEYLPILGLAEFRTCASRLALGDDSPALQEKRVGGVQSLGGTGALRIGAEFLARWYNGTNNKDTPVYVSSPTWENHNGVFTTAGFKDIRSYRYWDTEKRGLDLQGFLSDLENAPEFSIFVLHACAHNPTGTDPTPEQWKQIASVMKRRFLFPFFDSAYQGFASGNLEKDAWAIRYFVSEGFELFCAQSFSKNFGLYNERVGNLTVVAKEPDSILRVLSQMEKIVRVTWSNPPAQGARIVARTLSDPELFHEWTGNVKTMADRILSMRSELRARLEALKTPGTWNHITDQIGMFSFTGLNPKQVEYLINEKHIYLLPSGRINMCGLTTKNLDYVATSIHEAVTKIQ
Specific Activity (commercial enzyme (Sigma)): 1.5 μg I3P/mg protein/min

B3: R. sphaeroides 35053 msa: R. sphaeroides 35053 multiple substrate aminotransferase (SEQ ID NOS: 13 and 14) (protein)
chain: MREPLALEIDPGHGGPLFLAIAEAITLDITRGRLRPGARLPGTRALARALGVHRNTVDAAYQELLTQGWLQAEPARGTFVAQDLPQGMLVHRPAPAPVEPVAMRAGLAFSDGAPDPELVPDKALARAFRRALLSPAFRAGADYGDARGTSSLREALAAYLASDRGVVADPARLLIARGSQMALFLVARAALAPGEAIAVEEPGYPLAWEAFRAAGAEVRGVPVDGGGLRIDALEAALARDPRIRAVYVTPHHQYPTTVTMGAARRLQLLELAERHRLALIEDDYDHEYRFEGRPVLPLAARAPEGLPLIYVGSLSKLLSPGIRLGYALAPERLLTRMAAARAAIDRQGDAPLEAALAELIRDGDLGRHARKARRVYRARRDLLAERLTAQLAGRAAFDLPAGGLALWLRCAGVSAETWAEAAGQAGLALLPGTRFALESPAPQAFRLGYAALDEGQIARAVEILARSFPG
modifications: R. sphaeroides
Specific Activity [1]: 3.97 μg I3P/mg protein/min | Specific Activity [2]: 0 μg I3P/mg protein/min

B4: E. coli tyrB: E. coli tyrosine aminotransferase (tyrB, SEQ ID NOS: 31 and 32) (protein)
chain: VFQKVDAYAGDPILTLMERFKEDPRSDKVNLSIGLYYNEDGIIPQLQAVAEAEARLNAQPHGASLYLPMEGLNCYRHAIAPLLFGADHPVLKQQRVATIQTLGGSGALKVGADFLKRYFPESGVWVSDPTWENRVAIFAGAGFEVSTYPWYDEATNGVRFNDLLATLKTLPARSIVLLHPCCHNPTGADLTNDQWDAVIEILKARELIPFLDIAYQGFGAGMEEDAYAIRAIASAGLPALVSNSFSKIFSLYGERVGGLSVMCEDAEAAGRVLGQLKATVRRNYSSPPNFGAQVVAAVLNDEALKASWLAEVEEMRTRILAMRQELVKVLSTEMPERNFDYLLNQRGMFSYTGLSAAQVDRLREEFGVYLIASGRMCVAGLNTANVQRVAKAFAAVM
modifications: E. coli
Specific Activity [2]: 1 μg I3P/mg protein/min
